Among the data in patent US5817785, “Methods of producing nucleic acid ligands” (NeXstar Pharmaceuticals, Inc.) are binding result and binding signal values, retold here.

Bounds are passed on as bounds.

Data set [1] addresses T1, HIV-1 reverse transcriptase (HIV-RT) (HIV-1, UniProt P04585;P04585 P04585:588-1147,P04585:588-1027). Description: filter; binding reduced to that of non-specific sequences. The method, then:
(§1) Affinity assays with labeled RNA and HIV-RT. Model RNAs for refinement of the 5' and 3' boundaries and for determination of the effect of substitutions were labeled during transcription with T7 RNA polymerase as described in Tuerk et al. (1990) except that a-^32P-ATP was used, in reactions of 0.5 mM C,G, and UTP with 0.05 mM ATP. Synthetic oligonucleotides and phosphatased transcripts (as in Tuerk et al., 1990) were kinased as described in Gauss et al. (1987). All RNA-protein binding reactions were done in a "binding buffer" of 200 mM KOAc, 50 mM Tris-HCl pH 7.7, 10 mM dithiothreitol with exceptions noted for chemical protection experiments below. RNA and protein dilutions were mixed and stored on ice for 30 minutes then transferred to 37° C. for 5 minutes. In binding assays the reaction volume was 60 μl of which 50 μl was assayed. Each reaction was suctioned through a pre-wet (with binding buffer) nitrocellulose filter and rinsed with 3 mls of binding buffer after which it was dried and counted for assays or subjected to elution and assayed for chemical modification. In comparisons of binding affinity, results were plotted and the protein concentration at which half-maximal binding occurred (the approximate Kd in conditions of protein excess) was determined graphically.

Data set [2] addresses T1, HIV-1 reverse transcriptase (HIV-RT). Briefly: filter. On the procedure:
as §1

For data set [3] the target is unchanged. Briefly: filter; specific binding abolished. On the procedure: as §1
Data set [4] has the same target. Description: filter; little difference in affinity. The method, then: as §1
For data set [5] the target is unchanged. Description: filter; section II states 5-fold decrease on removal of both Us. The method, then: as §1
For data set [6] the target is unchanged. Briefly: filter; binds with high affinity. On the procedure:
as §1

Data set [7] has the same target. Description: filter; no effect on binding. On the procedure: as §1
For data set [8] the target is unchanged. Briefly: filter; affinity unchanged versus transcripts with two extra 5' Gs. On the procedure: as §1
Data set [9] has the same target. Briefly: filter; no 3' helix. The method, then:
as §1

Data set [10] shares this target. Briefly: filter; no difference in affinity. On the procedure: as §1

As for GGCGAAGUGCAACGGGAAAAUGCACU (ssRNA) [HIV-RT ligand D of FIG. 2 (5' U and next C removed)], in data set [1], the binding result is “no binding”.
In data set [2], GGUCGGAAGUGCAACCGGAAAAUGCACU (ssRNA) [ligand B C3-G14 to G-C] showed a binding signal of around 10 fold lower affinity.
Consider GGUGCGAAGUGCAACGCGAAAAUGCACU (ssRNA) [ligand B C2-G15 to G-C], for which the binding result in [2] is reported as “no binding”.
For the molecule GGUCCGAAGUGCAACGGAAAAAUGCACU (ssRNA) [ligand B G16A], the binding result in data set [3] is recorded as “no binding”.
For the molecule GGACCGAAGUGCAACGGGAAAAUGCACU (ssRNA) [ligand B U1A], the binding result in data set [4] was “binds”.
Take GGCCGAAGUGCAACGGGAAAAUGCACU (ssRNA, [none]) [HIV-RT ligand C of FIG. 2 (no 5' U)]: in [5], the binding signal was around 20 fold lower affinity.
As for UCCGAAGUGCAACGGGAAAAUGCACU (ssRNA, 2'-OMe at the 12 riboses of Stem 2 (A6-A11, U21-U26)) [ligand B with 2'-methoxy Stem 2 (FIG. 7 C)], the binding result in data set [6] is “binds”.
Regarding GGUCCCAAGUGCAAGGGGAAAAUGCACU (ssRNA) [ligand B G4-C13 to C-G], the binding signal in data set [7] turned out to be 1 fold vs ligand B.
Regarding GGUCCAAAGUGCAAUGGGAAAAUGCACU (ssRNA) [ligand B G4-C13 to A-U], in [2], the binding signal is around 20 fold lower affinity.
The same measure, in the same setting: the result for GGUCCGAAGUGCAACGGGAAAAU (ssRNA) [ligand B 3' truncation G22-U26] reads around 12 fold lower affinity; that for GGUCCGAAGUGCAACGGGAAAAUG (ssRNA) [ligand B 3' truncation C23-U26], 7 fold lower affinity.
For the molecule UCCGAAGUGCAACGGGAAAAUGCACU (ssRNA) [synthetic ligand B with 5'-terminal U1], the binding result in data set [8] was “binds”.
In data set [2], GGCCCGAAGUGCAACGGGAAAAUGCACU (ssRNA) [ligand B U1C] returned a binding signal of around 20 fold lower affinity.
The molecule GGUCCGAAGUGCAACGGGAAAA (ssRNA) [ligand B 3' truncation U21-U26 (no Stem 2)] showed a binding signal in [9] of around 70 fold lower affinity.
As for GGUCCGAAGUGCAACGGGAAAAUGC (ssRNA) [ligand B 3' truncation A24-U26], the binding signal in data set [10] was found to be 1 fold vs ligand B.
In turn, GGUCCAAAGUGCAACGGGAAAAUGCACU (ssRNA) [ligand B G4-C13 to A-C] showed a binding signal in [3] of at least 100 fold lower affinity.
